The results in this text go back to patent publication US12723255B2, “Herbicide tolerance genes and methods of use thereof” (priority 2014, dated 2026).

Test [1] relates to F1 hybrid maize plants. As to the kind of experiment: efficacy field trial with segregating F1 hybrid plants. It is filed as in vivo. The following applies: CTP A; for % Injury from V4 2,4-D / % Injury from V8 2,4-D: 2,4-D amine 2× at VE-V2 (plus quizalofop-P 0.5×), V4, V8; for % Injury from V4 Quizalofop / % Injury from V8 Quizalofop: quizalofop-P 2× at VE-V2, V4, V8. As for the experimental part: Ten unique engineered proteins optimized for activity at higher temperatures were selected for maize transformation and analysis in plants. DNA constructs were produced for expressing these engineered proteins with codon usage optimized for monocot expression using methods known to those skilled in the art. Enhancers, promoters, leaders, introns, CTPs, and 3′UTRs were tested in various combinations with the engineered proteins in these DNA constructs. The DNA constructs were used to transform immature maize (LH244) embryos with these vectors using Agrobacterium tumifaciens and standard methods known in the art. Regenerated R0 transgenic plantlets were grown in the green house.
Transgenic R0 maize plants were screened by the application of quizalofop-P (2×) plus 2,4-D (2×) at 7 to 10 days following transplant into plugs (generally corresponding to V3-V4 growth stage). All constructs tested produced plants containing unique events that passed the RO screen. The R0 plants were selfed to generate R1 homozygous seed and the R0 was also used as the male to cross with inbred plants containing maize event MON89034 to generate segregating F1 hybrid seed for efficacy field trials.
An efficacy field trial was conducted with segregating F1 hybrid plants, with 50% hemizygous and 50% null for the transgene. Tolerance to quizalofop-P (2×) plus 2,4-D (2×) was assessed using two herbicide application regimens: (1) quizalofop-P (Assure II) at 0.16 lb ai/acre (2×) plus 0.25% v/v non-ionic surfactant (NIS) applied at VE-V2 growth stage followed by the same at V4 growth stage followed by the same at V8 growth stage and (2) 2,4-D amine at 2 lb ae/acre (2×) plus quizalofop-P at 0.04 lb ai/acre (0.5×) plus 0.25% v/v NIS applied at VE-V2 growth stage followed by 2,4-D amine at 2 lb ae/acre (2×) plus 0.25% v/v NIS applied at V4 growth stage followed by the same at V8 growth stage. The 50% of the plants that were null for transgene were removed by the first quizalofop-P application at VE-V2 growth stage. Plots were visually rated 10-14 days after application for crop injury on a scale of 0 to 100 with “0” being none and “100” being complete crop destruction. […] The percentage injury rating with 2× application of 2,4-D at V8 growth stage ranged from a high of 40% to a low of 0. Similarly, the percentage injury rating with 2× application of quizalofop-P at V8 growth stage ranged from a high of 90% to a low of 0. Variation in injury rating between plants expressing the same protein is likely due to variations in construct design or transgene insertion location.

Test [2] relates to F1 hybrid maize plants. Kind of test: efficacy field trial for quizalofop-P tolerance and clethodim sensitivity. It is filed as in vivo. The conditions noted are these: scale 0 to 100; for average injury rating, V4 Growth Stage, 4x Quizalofop / average injury rating, V8 Growth Stage, 4x Quizalofop: 0.32 lb ai/acre at VE-V2, V4, V8; for average injury rating, V4 Growth Stage, 4x Quizalofop / average injury rating, V8 Growth Stage, 4x Quizalofop / average injury rating, V4 Growth Stage, 8x Quizalofop / average injury rating, V8 Growth Stage, 8x Quizalofop / average injury rating, V4 Growth Stage, 16x Quizalofop / average injury rating, V8 Growth Stage, 16x Quizalofop: with CTP unless label says no CTP; for average injury rating, V4 Growth Stage, 8x Quizalofop / average injury rating, V8 Growth Stage, 8x Quizalofop: 0.64 lb ai/acre at VE-V2, V4, V8; for average injury rating, V4 Growth Stage, 16x Quizalofop / average injury rating, V8 Growth Stage, 16x Quizalofop: 1.28 lb ai/acre at VE-V2, V4, V8; for average injury rating, V8 Growth Stage, 1x Clethodim: clethodim 0.25 lb ai/acre at V8, volunteer control. As for the experimental part:
Separate trait efficacy field trials for quizalofop-P and 2,4-D were conducted at two locations cach with F1 hybrid transgenic plants produced by crossing an inbred plant containing maize event MON89034 with an R1 plant containing MON-HT55 (with a CTP), MON-HTI (with or without a CTP), MON-HT2 (with or without a CTP), MON-HT3 (with a CTP), MON-HT4 (with a CTP), MON-HT5 (with a CTP), MON-HT6 (with a CTP), or MON-HT7 (with a CTP). Transgenic F1 hybrid plants containing maize events NK603×MON89034 were used for comparison as a control.
In the efficacy field trial for quizalofop-P tolerance and clethodim sensitivity, one of four herbicide treatments was used: (1) quizalofop-P (Assure II) at 0.32 lb ai/acre (4×) plus 0.25% v/v non-ionic surfactant (NIS) applied at VE-V2 growth stage followed by the same at V4 growth stage followed by the same at V8 growth stage; (2) quizalofop-P at 0.64 lb ai/acre (8×) plus 0.25% v/v NIS applied at VE to V2 growth stage followed by the same at V4 growth stage followed by the same at V8 growth stage; (3) quizalofop-P at 1.28 lb ai/acre (16×) plus 0.25% v/v NIS applied at VE to V2 growth stage followed by the same at V4 growth stage followed by the same at V8growth stage; or (4) clethodim at 0.25 lb ai/acre (1×) plus 0.25% v/v NIS applied at V8 growth stage. Plots were visually rated 10-14 days after application for crop injury on a scale of 0 to 100with “0” being none and “100” being complete crop destruction. Tables 14 and 15 show the average injury ratings after herbicide application at V4 or V8 growth stage, respectively.

B1: MON-HT5: engineered oxygenase protein, amino acid sequence SEQ ID NO:28 (protein)
chain: MHAALTPLTNKYRFIDVQPLTGVLGAEITGVDLREPLDDSTWNEILDAFHTYQVIYFPGQAITNEQHIAFSRRFGPVDPVPLLKSIEGYPEVQMIRREANESGRVIGDDWHTDSTFLDAPPAAVVMRAIEVPEYGGDTGFLSMYSAWETLSPTMQATIEGLNVVHSATKVFGSLYQATNWRFSNTSVKVMDVDAGDRETVHPLVVTHPVTGRRALYCNQVYCQKIQGMTDAESKSLLQFLYEHATKFDFTCRVRWKKDQVLVWDNLCTMHRAVPDYAGKFRYLTRTTVAGDKPSR
On to B1, for which, in the test on F1 hybrid maize plants [1], the “% Injury from V4 2,4-D” value is 27.2%, the “% Injury from V8 2,4-D” value turned out to be 17.4%, the “% Injury from V4 Quizalofop” value was 6.8% and the “% Injury from V8 Quizalofop” value amounted to 1.7%. Besides, in the test on F1 hybrid maize plants [2], the “average injury rating, V4 Growth Stage, 4x Quizalofop” value was 1.3; the “average injury rating, V8 Growth Stage, 4x Quizalofop” value is on record as 2.5; the “average injury rating, V4 Growth Stage, 8x Quizalofop” value worked out at 4.5; the “average injury rating, V8 Growth Stage, 8x Quizalofop” value stood at 0.0. Moreover, in the test with F1 hybrid maize plants [2], the “average injury rating, V4 Growth Stage, 16x Quizalofop” value was determined as 4.5; the “average injury rating, V8 Growth Stage, 16x Quizalofop” value was determined as 8.0; the “average injury rating, V8 Growth Stage, 1x Clethodim” value (“average injury rating … 1x Clethodim” for short) was 92.0.

B2: MON-HT3: engineered oxygenase protein, amino acid sequence SEQ ID NO:22 (protein)
chain: MHAALSPLSQRFERIAVQPLTGVLGAEITGVDLREPLDDSTWNEILDAFHTYQVIYFPGQAITNEQHIAFSRRFGPVDPVPLLKSIEGYPEVQMIRREANESGRVIGDDWHTDSTFLDAPPAAVVMYAKEVPPYGGDTLFASMYTAWETLSPTMQATIEGLNVVHSATRVFGSLYQAQNRRFSNTSVKVMDVDAGDRETVHPLVVTHPETGRKGLYVNQVYCQRIEGMSEKESEPLLSFLFAHATKPEFTCRVRWQEGQVLVWDNLCTQHFAVPDYAGKFRYLTRTTVGGVRPAR
As to B2, in the test on F1 hybrid maize plants [1], the “% Injury from V4 2,4-D” value is 21.7%, the “% Injury from V8 2,4-D” value was 9.2%, the “% Injury from V4 Quizalofop” value was determined as 1.6% and the “% Injury from V8 Quizalofop” value was found to be 0.5%. In the test on F1 hybrid maize plants [2], the “average injury rating, V4 Growth Stage, 4x Quizalofop” value was found to be 0.8; the “average injury rating, V8 Growth Stage, 4x Quizalofop” value was 2.5; the “average injury rating, V4 Growth Stage, 8x Quizalofop” value was determined as 0.0; the “average injury rating, V8 Growth Stage, 8x Quizalofop” value amounted to 2.0. Moreover, in the test on F1 hybrid maize plants [2], the “average injury rating, V4 Growth Stage, 16x Quizalofop” value is on record as 4.3; the “average injury rating, V8 Growth Stage, 16x Quizalofop” value is recorded as 6.0; the “average injury rating … 1x Clethodim” value is 94.5.

B3: MON-HT9: engineered oxygenase protein, amino acid sequence SEQ ID NO:40 (protein)
chain: MHAALTPLTNKYRFIDVQPLTGVLGAEITGVDLREPLDDSTWNEILDAFHTYQVIYFPAQQITNEQHISFSRRFGPVDPVPLLKSIEGYPEVQMIRREANESGRILGDDWHTDSTFLDAPPAAVVMRAIEVPEYGGDTGFLSMYSAWDTLSDTMKATIEGLNVVHSATRVFGSLYQAQNWRFSNTSVKVMDVDAGDRETVHPLVVSHPVTGRRALYCNQVYCQRIEGMTDAESKCLLQFLYEHATKFDFTCRVRWKKDQVLVWDNLCTMHRAVPDYAGKFRYLTRTTVAGDRPAR
As to B3, in the test on F1 hybrid maize plants [1], the “% Injury from V4 2,4-D” value was 20%, the “% Injury from V8 2,4-D” value came to 40%, the “% Injury from V4 Quizalofop” value came to 5% and the “% Injury from V8 Quizalofop” value came to 5%.

B4: MON-HT10: engineered oxygenase protein, amino acid sequence SEQ ID NO:43 (protein)
chain: MHAALTPLTNKYRFIDVQPLCGVLGAEITGVDLREPLDDSTWNEILDAFHTYQVIYFPGQAITNEQHIAFSRRFGPVDPVPLLKSIEGYPEVQMIRREANESGRILGDDWHTDSTFLDAPPAAVVMRAIEVPEYGGDTGFLSMYSAWDTLSDTMKATIEGLNVVHSATRVFGSLYQAQNWRFSNTSVKVMDVDAGDRETVHPLVVSHPVTGRRALYCNQVYCQRIEGMTDAESKCLLQFLYEHATKFDFTCRVRWKKDQVLVWDNLCTMHLAVPDYDGKFRYLTRTTVAGDKPSR
With B4, in the test with F1 hybrid maize plants [1], the “% Injury from V4 2,4-D” value amounted to 28%, the “% Injury from V8 2,4-D” value is listed as 38.33%, the “% Injury from V4 Quizalofop” value was 0% and the “% Injury from V8 Quizalofop” value amounted to 0%.

B5: MON-HT4: engineered oxygenase protein, amino acid sequence SEQ ID NO:25 (protein)
chain: MHAALTPLTNKYRFIDVQPLTGVLGAEITGVDLREPLDDSTWNEILDAFHTYQVIYFPGQAITNEQHIAFSRRFGPVDPVPLLKSIEGYPEVQMIRREANESGRVIGDDWHTDSTFLDAPPAAVVMYAREVPPYGGDTGFLSMYTAWETLSPTMQATIEGLNVVHSATRVFGSLYQAQNRRYSNTSVKVMDVDAGDRETVHPLVVSHPVTGRRALYCNQVYCQRIEGMTDAESKSLLQFLYEHATKFDFTCRVRWKKDQVLVWDNLCTMHRAVPDYAGKFRYLTRTTVAGDKPSR
As for B5, in the test on F1 hybrid maize plants [1], the “% Injury from V4 2,4-D” value was found to be 22.3%, the “% Injury from V8 2,4-D” value was 12.3%, the “% Injury from V4 Quizalofop” value turned out to be 6.1% and the “% Injury from V8 Quizalofop” value is given as 0%. For the same molecule, in the test with F1 hybrid maize plants [2], the “average injury rating, V4 Growth Stage, 4x Quizalofop” value stood at 2.8; the “average injury rating, V8 Growth Stage, 4x Quizalofop” value came to 3.3; the “average injury rating, V4 Growth Stage, 8x Quizalofop” value turned out to be 3.3; the “average injury rating, V8 Growth Stage, 8x Quizalofop” value is 3.3. In the test on F1 hybrid maize plants [2], the “average injury rating, V4 Growth Stage, 16x Quizalofop” value was 13.8; the “average injury rating, V8 Growth Stage, 16x Quizalofop” value turned out to be 8.0; the “average injury rating … 1x Clethodim” value is 94.5.

B6: MON-HT6: engineered oxygenase protein, amino acid sequence SEQ ID NO:31 (protein)
chain: MHAALSPLSQKYRFIDVQPLTGVLGAEITGVTLREPLDDNTWNEILDAFHTYQVIYFPGQAITNEQHIAFSRRFGPVDPVPLLKSIEGYPEVQMIRREANESGRVIGDDWHTDSTFLDAPPAAVVMYAREVPPYGGDTGFLSMYSAWDTLSDTMKATIEGLNVVHSATRVFGSLYQAQNRRFSNTSVKVMDVDAGDRETVHPLVVSHPVTGRRALYCNQVYCQRIEGMTDAESKPLLQFLYEHATRFDFTCRVRWKKDQVLVWDNLCTMHRAVPDYAGKFRYLTRTTVAGDKPSR
With B6, in the test with F1 hybrid maize plants [1], the “% Injury from V4 2,4-D” value was found to be 27%, the “% Injury from V8 2,4-D” value was 12.7%, the “% Injury from V4 Quizalofop” value came out at 8% and the “% Injury from V8 Quizalofop” value amounted to 1.7%. Moreover, in the test on F1 hybrid maize plants [2], the “average injury rating, V4 Growth Stage, 4x Quizalofop” value worked out at 0.0; the “average injury rating, V8 Growth Stage, 4x Quizalofop” value is on record as 1.3; the “average injury rating, V4 Growth Stage, 8x Quizalofop” value came to 1.3; the “average injury rating, V8 Growth Stage, 8x Quizalofop” value stood at 2.0. In addition, in the test with F1 hybrid maize plants [2], the “average injury rating, V4 Growth Stage, 16x Quizalofop” value was determined as 2.8; the “average injury rating, V8 Growth Stage, 16x Quizalofop” value is 5.0; the “average injury rating … 1x Clethodim” value is reported as 93.3.
